In patent US20040014707A1 (published 2004) one finds binding result and Kd data, which are given here for four molecules.

Test [1] concerns the target EGFP-PA32 fusion protein (Bacillus anthracis). Nature of the test: SPR (BIAcore), […], single concentration.
Test [2] deals with recombinant PA32 protein (Bacillus anthracis). Nature of the test: SPR, PA32 coupled to CM5 chip, single scFv concentration. For orientation: In SPR one partner is held on a chip, and binding of the other changes the refractive index at the surface.
In test [3] the target is Bacillus anthracis protective antigen PA83 (Bacillus anthracis, UniProt P13423 30-764). Put plainly: SPR (BIACORE), PA83 on CM5 chip, 4 concentrations of monomeric scFv.

B1: scFv#12 (scFv)
scFv: QVQLVESGGGVVQPGRSLRLSCAASGFTFNNHAMEWVRQAPGKGLEWVSGINWDGGSTGYADSVKGRFAVSRDNAKNSLYLQINSLRDEDTAVYYCARANWGRIDYWGQGTLVTVSSGGGGSGGGGSGGGGSSELTQDPAVSVALGQTVRITCQGDSLRRYYASWYQQKPGQAPVLVIYGKNNRPSGIPDRFSGSSSGNTASLTITGAQAEDEADYYCHSRDSSGTHLRVFGGGTKLTVLGAAAEQKLISEEDLNGAAHHHHH
Regarding B1, the binding result in test [1] and in test [2] was “no binding” in each case.

B2: scFv#4 (scFv)
scFv: QVQLVESGGGLVQPGGSLRLSCSASGFTFSSYAMHWVRQAPGKGLEYVSAISSNGGSTYYADSVKGRFTISRDNSKNTLYLQMSSLRAEDTAVYYCVKDLHVGRLQLGVFDYWGQGTLVTVSSGGGGSGGGGSGGGGSSELTQDPAVSVALGQTVRITCQGDSLRSYYASWYQQKPGQAPVLVIYGKNNRPSGIPDRFSGSSSGNTASLTITGAQAEDEADYYCNSRDSSSTHRGVFGGGTKLTVLGAAAEQKLISEEDLNGAAHHHHHH
On to B2, for which the Kd in test [3] was determined as 310 nM.

B3: scFv#24 (scFv)
scFv: QVQLVESGGGLVQPGGSLRLSCSASGFTFSSYAMHWVRQAPGKGLEYVSAISSNGGSTYYADSVKGRFTISRDNSKNTLYLQMSSLRAEDTAVYYCVKDLHVGRLQLGVFDYWGQGTLVTVSSGGGGSGGGGSGGGGSSELTQDPAVSVAVGQTVKITCQGDSLRSYYATWYQQKPGQAPVLVIYGKNSRPSGIPDRFSGSSSGTTASFTITGAQAEDEADYYCNSRDSTNNQLFGGGTKLTVLGAAAEQKLISEEDLNGAAHHHHH
For the molecule B3, in test [3], the Kd came to 430 nM.

B4: scFv#1 (scFv)
scFv: QVNLRESGGGLVQPGGSLRLSCAASGFTFSSYAMSWVRQAPGKGLEWVSAISSNGGSTYYADSVKGRFTISRDNSKNTLYLQMSSLRAEDTALYYCARERGAAAASDYWGPGTLVTVSSGGGGSSGGGSGGGGSQSVLTQPPSASGTPGQRVTISCSGSSSNIGSNSVNWYQQLPGTAPKLLIYSNSNRPSGVPDRFSGSKSGTSASLAISGLRSEDEADYYCAAWDDSLSGRVFGGGTKLTVLGAAAEQKLISEEDLNGAAHHHHHH
In test [3], B4 yielded a Kd of 190 nM.

Usually Kd stands for the equilibrium constant for the complex coming apart. A higher Kd goes with lower affinity.
